Laboratory results reported in US20190321401A1 (JUNO THERAPEUTICS, published 2019).

Legend:
[1] = molecular target: T1, HPV 16 E6 peptide on HLA-A*02:01 (human); experiment: multimer staining
T1 peptide: TIHDIILECV

[2] = molecular target: T2, HPV 16 E7 peptide on HLA-A*02:01 (human); experiment: multimer staining
T2 peptide: YMLDLQPET

[3] = molecular target: T3, HPV 16 E7(11-19), single-substitution variant T9V (synthetic scanning library) peptide on HLA-A*02:01 (human); experiment: activation reporter or marker
T3 peptide: YMLDLQPEV

[4] = molecular target: T4, HPV 16 E7(11-19), single-substitution variant E8I (synthetic scanning library) peptide on HLA-A*02:01 (human); experiment: activation reporter or marker
T4 peptide: YMLDLQPIT

[5] = molecular target: T5, HPV 16 E7(11-19), single-substitution variant Y1I (synthetic scanning library) peptide on HLA-A*02:01 (human); experiment: activation reporter or marker
T5 peptide: IMLDLQPET

[6] = molecular target: T6, HPV 16 E7(11-19), single-substitution variant E8Q (synthetic scanning library) peptide on HLA-A*02:01 (human); experiment: activation reporter or marker
T6 peptide: YMLDLQPQT

[7] = molecular target: T7, HPV 16 E7(11-19), single-substitution variant L5C (synthetic scanning library) peptide on HLA-A*02:01 (human); experiment: activation reporter or marker
T7 peptide: YMLDCQPET

[8] = molecular target: T8, HPV 16 E7(11-19), single-substitution variant Y1C (synthetic scanning library) peptide on HLA-A*02:01 (human); experiment: activation reporter or marker
T8 peptide: CMLDLQPET

[9] = molecular target: T9, HPV 16 E7(11-19), single-substitution variant E8K (synthetic scanning library) peptide on HLA-A*02:01 (human); experiment: activation reporter or marker
T9 peptide: YMLDLQPKT

[10] = molecular target: T10, HPV 16 E7(11-19), single-substitution variant T9S (synthetic scanning library) peptide on HLA-A*02:01 (human); experiment: activation reporter or marker
T10 peptide: YMLDLQPES

[11] = molecular target: T11, HPV 16 E7(11-19), single-substitution variant Y1M (synthetic scanning library) peptide on HLA-A*02:01 (human); experiment: activation reporter or marker
T11 peptide: MMLDLQPET

[12] = molecular target: T12, HPV 16 E7(11-19), single-substitution variant E8T (synthetic scanning library) peptide on HLA-A*02:01 (human); experiment: activation reporter or marker
T12 peptide: YMLDLQPTT

[13] = molecular target: T13, HPV 16 E7(11-19), single-substitution variant M2C (synthetic scanning library) peptide on HLA-A*02:01 (human); experiment: activation reporter or marker
T13 peptide: YCLDLQPET

[14] = molecular target: T14, HPV 16 E7(11-19), single-substitution variant Y1W (synthetic scanning library) peptide on HLA-A*02:01 (human); experiment: activation reporter or marker
T14 peptide: WMLDLQPET

[15] = molecular target: T15, HPV 16 E7(11-19), single-substitution variant Y1S (synthetic scanning library) peptide on HLA-A*02:01 (human); experiment: activation reporter or marker
T15 peptide: SMLDLQPET

[16] = molecular target: T16, HPV 16 E7(11-19), single-substitution variant T9D (synthetic scanning library) peptide on HLA-A*02:01 (human); experiment: activation reporter or marker
T16 peptide: YMLDLQPED

[17] = molecular target: T17, HPV 16 E7(11-19), single-substitution variant L5F (synthetic scanning library) peptide on HLA-A*02:01 (human); experiment: activation reporter or marker
T17 peptide: YMLDFQPET

[18] = molecular target: T18, HPV 16 E7(11-19), single-substitution variant T9F (synthetic scanning library) peptide on HLA-A*02:01 (human); experiment: activation reporter or marker
T18 peptide: YMLDLQPEF

[19] = molecular target: T19, HPV 16 E7(11-19), single-substitution variant L3V (synthetic scanning library) peptide on HLA-A*02:01 (human); experiment: activation reporter or marker
T19 peptide: YMVDLQPET

[20] = molecular target: T20, HPV 16 E7(11-19), single-substitution variant L5Y (synthetic scanning library) peptide on HLA-A*02:01 (human); experiment: activation reporter or marker
T20 peptide: YMLDYQPET

[21] = molecular target: T21, HPV 16 E7(11-19), single-substitution variant P7C (synthetic scanning library) peptide on HLA-A*02:01 (human); experiment: activation reporter or marker
T21 peptide: YMLDLQCET

[22] = molecular target: T22, HPV 16 E7(11-19), single-substitution variant T9I (synthetic scanning library) peptide on HLA-A*02:01 (human); experiment: activation reporter or marker
T22 peptide: YMLDLQPEI

[23] = molecular target: T23, HPV 16 E7(11-19), single-substitution variant E8D (synthetic scanning library) peptide on HLA-A*02:01 (human); experiment: activation reporter or marker
T23 peptide: YMLDLQPDT

[24] = molecular target: T24, HPV 16 E7(11-19), single-substitution variant Q6H (synthetic scanning library) peptide on HLA-A*02:01 (human); experiment: activation reporter or marker
T24 peptide: YMLDLHPET

[25] = molecular target: T25, HPV 16 E7(11-19), single-substitution variant T9M (synthetic scanning library) peptide on HLA-A*02:01 (human); experiment: activation reporter or marker
T25 peptide: YMLDLQPEM

B1: TCR 57 (TCR, V domains shown)
Valpha: TQLLEQSPQFLSIQEGENLTVYCNSSSVFSSLQWYRQEPGEGPVLLVTVVTGGEVKKLKRLTFQFGDARKDSSLHITAAQPGDTGLYLCAGARNFNKFYFGSGTKLNVKP
Vbeta: GAVVSQHPSWVICKSGTSVKIECRSLDFQATTMFWYRQFPKQSLMLMATSNEGSKATYEQGVEKDKFLINHASLTLSTLTVTSAHPEDSSFYICSARSWRGGLEQFFGPGTRLTVL
- binding result [1]: no recognition
- binding result [2]: recognises
- binding result [3]: recognises
- binding result [4]: recognises
- binding result [5]: recognises
- binding result [6]: recognises
- binding result [7]: recognises
- binding result [8]: recognises
- binding result [9]: recognises
- binding result [10]: recognises
- binding result [11]: recognises
- binding result [12]: recognises
- binding result [13]: recognises
- binding result [14]: recognises
- binding result [15]: recognises
- binding result [16]: recognises
- binding result [17]: recognises
- binding result [18]: recognises
- binding result [19]: recognises
- binding result [20]: recognises
- binding result [21]: recognises
- binding result [22]: recognises
- binding result [23]: recognises
- binding result [24]: recognises
- binding result [25]: recognises
